For assay [1], the target named is hsEGFR (human (printed only as 'hs')) (UniProt P00533). The assay is described as follows: two-colour flow cytometry after 24 hours, b-hsEGFR/SA-PE and Fc-specific AlexaFluor 647.
Assay [2] has the same target. Kind of assay: two-colour flow cytometry after 48 hours, b-hsEGFR/SA-PE and Fc-specific AlexaFluor 647.

As to “antibody matuzumab (IgG molecule) secreted by yeast and displayed through the ZZ domain”, the percent of cells within the marker region M1 in assay [1] stood at 36.4%; in assay [2], 43.4%.

For the origin of these results see US20150337292A1.
